First the molecules themselves.
B1: 365_B08 (antibody, V domains shown)
VH: EVQLLESGGGLVQPGGSLRLSCAASGFTFDSYGMNWVRQAPGKGLEWVSNINYNSGYKGYADSVKGRFTISRDNSKNTLYLQMNSLRAEDTAVYYCARAATWHDTHLDYWGQGTLVTVSS
VL: DIQMTQSPSSLSASVGDRVTITCRASQSIVTYLNWYQQKPGKAPKLLIYAATSRASGVPSRFSGSGSGTDFTLTISSLQPEDFATYYCQQSYSSPLTFGGGTKVEIK
notes: Group II
B2: 366_C05 (antibody, V domains shown)
VH: B1 VH with S31D, N35H, N50S, S55G, K58T
VL: B1 VL with V30I, T31S, L47V, S93D
notes: Group II
B3: 365_C06 (antibody, V domains shown)
VH: B1 VH with D30S, S31D, N35H, N50G, S55G, K58T, G59S, T101N, H106A
VL: B1 VL with V30S, L33V, A51V, R54L, S93D, S94N
notes: Group I
B4: 365_F11 (antibody, V domains shown)
VH: B1 VH with G33S, N50G, T101N
VL: B1 VL with V30I, T31S, L33V, S93N, S94T
notes: Group I
B5: 365_C03 (antibody, V domains shown)
VH: B1 VH with D30S, N35H, S49A, N50G, T101N
VL: B1 VL with V30L, L33V, L47V, A51T, R54L, S93N, S94T
notes: Group I
B6: 365_E04 (antibody, V domains shown)
VH: B1 VH with N35H, S49A, N50S, S55G, G59S, T101N, H106A
VL: B1 VL with V30L, T31S, L33V, R54L, S93E, S94L
notes: Group I
B7: 366_A02 (antibody, V domains shown)
VH: B1 VH with S49A, N50S, T101N
VL: B1 VL with T31S, L33V, S93D, S94L
notes: Group I
B8: 365_D08 (antibody, V domains shown)
VH: B1 VH with G33S, N35H, N50S, S55G, K58T, G59S
VL: B1 VL with V30I, L33V, S93D, S94T
notes: Group II
B9: 365_F02 (antibody, V domains shown)
VH: B1 VH with D30S, G33S, N50G, S55G, A99G, T101N
VL: B1 VL with V30L, L33V, A55H, S93D, S94T
notes: Group III
B10: 365_G06 (antibody, V domains shown)
VH: B1 VH with N35H, S49A, N50G, S55G, K58T, G59S
VL: B1 VL with V30L, T31S, R54L, Y92D, S94T
notes: Group II
B11: 365_F10 (antibody, V domains shown)
VH: B1 VH with S31D, N35H, N50G, S55G, K58T, G59S
VL: B1 VL with L33V, S93E, S94L
notes: Group II
B12: 365_B12 (antibody, V domains shown)
VH: B1 VH with D30S, S31D, N35H, N50G, S55G, K58T, G59S
VL: B1 VL with V30S, L33V, A51V, R54L, A55H, S93D, S94N
notes: Group II
B13: 365_H08 (antibody, V domains shown)
VH: B1 VH with D30S, N35H, S49A, N50S, S55G, G59S, T101N, H106A
VL: not shown
notes: Group I
B14: 366_B09 (antibody, V domains shown)
VH: B1 VH with D30S, S31D, N35H, N50S, G59S
VL: B1 VL with V30L, L47V, A55H, S93D
notes: Group II
B15: 365_G05 (antibody, V domains shown)
VH: B1 VH with D30S, N50G, S55G, A99G, T101N, H106A
VL: B1 VL with V30L, T31S, L47V, R54L, S93E, S94N
notes: Group III
B16: 365_G08 (antibody, V domains shown)
VH: B1 VH with D30S, N35H, S49A, N50S, S55G, K58T, G59S
VL: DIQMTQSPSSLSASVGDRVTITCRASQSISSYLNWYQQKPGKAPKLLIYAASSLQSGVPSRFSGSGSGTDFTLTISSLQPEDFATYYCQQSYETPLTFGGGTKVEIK
notes: Group II
B17: 365_G04 (antibody, V domains shown)
VH: B1 VH with G33S, S49A, N50G, S55G, K58T, A99G, T101N
VL: B1 VL with T31S, L33V, L47V, R54L, S93D, S94T
notes: Group III
B18: 365_C05 (antibody, V domains shown)
VH: B1 VH with D30S, S31D, G33S, N50G, S55G, A99G, T101N
VL: B1 VL with V30L, A55H, S93N
notes: Group III
B19: 365_G07 (antibody, V domains shown)
VH: B1 VH with N35H, N50S, S55G, K58T, G59S, T101N, H106A
VL: B1 VL with T31S, S93D, S94N
notes: Group I
B20: 365_G09 (antibody, V domains shown)
VH: B1 VH with D30S, G33S, N50G, S55G, G59S, A99G, T101N
VL: B1 VL with V30I, L47V, S93N
notes: Group III
B21: 366_D01 (antibody, V domains shown)
VH: B1 VH with D30S, N35H, N50S, S55G, K58T, T101N
VL: B1 VL with V30L, L33V, S93E, S94N
notes: Group I
B22: 365_D03 (antibody, V domains shown)
VH: B1 VH with S31D, G33S, N35H, S49A, N50S, S55G, G59S
VL: B1 VL with T31S, L47V, S93D
notes: Group II
B23: 365_E12 (antibody, V domains shown)
VH: B1 VH with D30S, S31D, S55G, K58T, A99G, T101N, H106A
VL: B1 VL with V30L, S93E, S94T
notes: Group III
B24: 366_A04 (antibody, V domains shown)
VH: B1 VH with D30S, S49A, N50G, S55G, K58T, G59S, T101N, H106A
VL: B1 VL with V30L, L47V, R54L, Y92D, S93D
notes: Group I
B25: 365_D04 (antibody, V domains shown)
VH: B1 VH with D30S, S31D, N35H, S49A, N50G, S55G, G59S, T101N, H106A
VL: B1 VL with V30S, T31S, L47V, A51V, S93D, S94L
notes: Group I
B26: 365_F03 (antibody, V domains shown)
VH: B1 VH with G33S, N50S, S55G, K58T, G59S, A99G, T101N
VL: B1 VL with V30L, T31S, S93D, S94N
notes: Group III
B27: 366_D03 (antibody, V domains shown)
VH: B1 VH with N35H, N50S, S55G, K58T, T101N
VL: B1 VL with V30L, T31S, L33V, S93D, S94L
notes: Group I
B28: 365_H07 (antibody, V domains shown)
VH: B1 VH with G33S, N50G, S55G, K58T, G59S, A99G, T101N
VL: B1 VL with V30S, L33V, A55H, S93E, S94N
notes: Group III
B29: 365_G03 (antibody, V domains shown)
VH: B1 VH with D30S, S49A, N50G, A99G, T101N
VL: B1 VL with T31S, S93N, S94T
notes: Group III
B30: 365_E06 (antibody, V domains shown)
VH: B1 VH with N50G, S55G, K58T
VL: B1 VL with V30L, L47V, S93N, S94T
notes: Group II
B31: 366_B07 (antibody, V domains shown)
VH: B1 VH with D30S, S31D, N50G, S55G, K58T, G59S, A99G, T101N
VL: B1 VL with T31S, L47V, A51T, S93N
notes: Group III

Where a chain is given by its changes, count along the chain named.

In US20210380703A1 (RIGEL PHARMACEUTICALS, published 2021) one finds optical density data, which are given here for 31 molecules.
Further: test concentration or dose not given here.

The target in the first assay is T1, human ACVR2A (human, UniProt P27037 20-135, limits assumed).
T1 construct: also called activin receptor, type II A
T1 sequence (P27037 20-135 limits assumed): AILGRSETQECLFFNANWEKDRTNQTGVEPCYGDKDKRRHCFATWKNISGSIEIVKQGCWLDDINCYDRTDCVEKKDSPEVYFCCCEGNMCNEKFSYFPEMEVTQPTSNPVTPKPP
Description: ELISA. A digest of the protocol:
(§1)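 Binding signal was read by ELISA after ACVR2A-specific monoclonal antibodies were tested against human ACVR2A and mouse ACVR2A, with human Fc as the negative control.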
On the technique in general: In an ELISA, binding on a coated surface is turned into a signal by an enzyme label.
B1 displayed an optical density of 1.14 OD.
Molecule B2 gave an optical density of 2.01 OD.
For B3, the optical density was found to be 1.78 OD.
For B4, the optical density was 2.01 OD.
With B5, the optical density was 2.26 OD.
Take B6: the optical density stood at 2.34 OD.
In turn, B7 registered an optical density of 2.45 OD.
Same read-out and setting: next, B8: 2.26 OD.
In the case of B9, the optical density stood at 2.78 OD.
The molecule B10 came in with an optical density of 2.2 OD.
Molecule B11 showed an optical density of 2.75 OD.
Turning to B12, the optical density worked out at 2.33 OD.
As for B13, the optical density came out at 2.67 OD.
Take B14: the optical density was 2.3 OD.
Regarding B15, the optical density came to 2.44 OD.
B16: the optical density is 2.53 OD.
On the same count and under the same terms, the figure for B17 is 2.1 OD; for B18 it is 2.56 OD; for B19 it is 2.42 OD.
Still for that read-out and setting: the figure for B20 is 2.62 OD.
Regarding B21, the optical density was 2.36 OD.
Regarding B22, the optical density amounted to 2.35 OD.
On to B23, for which the optical density was found to be 3.32 OD.
For B24, the optical density stood at 1.82 OD.
B25 had an optical density of 2.27 OD.
With B26, the optical density is 2.63 OD.
For the molecule B27, the optical density amounted to 2.23 OD.
B28 returned an optical density of 2.51 OD.
Molecule B29 displayed an optical density of 2.24 OD.
On the same count and under the same terms, the figure for B30 is 1.99 OD.
B31: the optical density stood at 1.8 OD.

In another assay the target is mouse ACVR2A (mouse, UniProt P27038 20-135, limits assumed). As to the kind of experiment: ELISA. An outline of the steps: as §1
Sequence of mouse ACVR2A (P27038 20-135 limits assumed): as the sequence (P27037 20-135 limits assumed) above, with K20R, V73I counted along it
B1 came in with an optical density of 1.26 OD.
As for B2, the optical density was 2.36 OD.
Turning to B3, the optical density turned out to be 2.23 OD.
Same read-out and setting: next, B4: 2.14 OD.
B5: the optical density was 2.65 OD.
In turn, B6 gave an optical density of 2.4 OD.
As for B7, the optical density came to 2.69 OD.
In turn, B8 had an optical density of 2.35 OD.
B9: the optical density amounted to 3.05 OD.
Take B10: the optical density was 2.02 OD.
The same measure, in the same setting: the figure for B11 is 2.79 OD; for B12 it is 2.29 OD.
As for B13, the optical density came out at 2.61 OD.
Molecule B14 came in with an optical density of 2.53 OD.
The molecule B15 displayed an optical density of 2.54 OD.
In turn, B16 displayed an optical density of 2.58 OD.
B17 gave an optical density of 2.48 OD.
Take B18: the optical density stood at 2.81 OD.
Still for that read-out and setting: the figure for B19 is 2.6 OD; for B20 it is 2.93 OD.
On to B21, for which the optical density worked out at 2.46 OD.
B22 gave an optical density of 2.48 OD.
B23 came in with an optical density of 3.28 OD.
As for B24, the optical density turned out to be 1.99 OD.
Same read-out and setting: next, B25: 2.39 OD; B26: 2.99 OD.
Molecule B27 yielded an optical density of 2.38 OD.
On the same count and under the same terms, the figure for B28 is 2.75 OD; for B29 it is 2.54 OD.
Same read-out and setting: the figure for B30 is 2.06 OD; for B31 it is 1.92 OD.

For a further assay, the target named is T2, biotinylated goat anti-human kappa light chain.
T2 construct: positive control of the ELISA
Description: ELISA, positive control. An outline of the steps:
as §1
B1 came in with an optical density of 3.04 OD.
The molecule B2 registered an optical density of 3.4 OD.
The molecule B3 returned an optical density of 3.45 OD.
In turn, B4 had an optical density of 3.5 OD.
Consider B5, for which the optical density stood at 3.5 OD.
On the same count and under the same terms, next, B6: 3.54 OD.
For the molecule B7, the optical density stood at 3.58 OD.
Same read-out and setting: next, B8: 3.61 OD.
Regarding B9, the optical density is 3.4 OD.
With B10, the optical density was found to be 3.34 OD.
Molecule B11 returned an optical density of 3.65 OD.
Still for that read-out and setting: next, B12: 3.43 OD; B13: 3.59 OD; B14: 3.39 OD.
Take B15: the optical density was 3.35 OD.
For the molecule B16, the optical density is 3.5 OD.
B17 gave an optical density of 3.29 OD.
Turning to B18, the optical density was 3.53 OD.
In turn, B19 displayed an optical density of 3.47 OD.
Regarding B20, the optical density turned out to be 3.67 OD.
Still for that read-out and setting: next, B21: 3.48 OD; B22: 3.53 OD.
B23: the optical density worked out at 3.52 OD.
The molecule B24 showed an optical density of 3.4 OD.
In the case of B25, the optical density amounted to 3.52 OD.
In turn, B26 registered an optical density of 3.57 OD.
The molecule B27 yielded an optical density of 3.48 OD.
B28: the optical density is 3.43 OD.
In the case of B29, the optical density worked out at 3.54 OD.
With B30, the optical density was 3.29 OD.
Take B31: the optical density amounted to 3.22 OD.
